# Ends that are not written are not given here. * marks the point of attachment. DOTA = O=C(O)CN1CCN(CC(=O)O)CCN(CC(=O)*)CCN(CC(=O)O)CC1; PEG (n : 3) = short polyethylene glycol linker, n = 3
# Target: Transforming growth factor β (human (endogenous in PANC-1))
# Sequence (P01137 279-390): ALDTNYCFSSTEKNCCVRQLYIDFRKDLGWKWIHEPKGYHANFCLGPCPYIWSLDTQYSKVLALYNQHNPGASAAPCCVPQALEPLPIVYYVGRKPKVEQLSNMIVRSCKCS
binder,measurement,value
{DOTA-PEG (n : 3)}-TSLDASIWAMMQNA (also: [68Ga] chelated by the DOTA) [[^68Ga]Ga-DOTA-P144],"tumor uptake (%ID/g-mean) of [^68Ga]Ga-P144 by microPET at 1 h in PANC-1 tumor-bearing mice, unblocked group (n = 4)",5.36 %ID/g-mean

# — paper PMC10540840, “PET imaging with [^68Ga]-labeled TGFβ-targeting peptide in a mouse PANC-1 tumor model” (Frontiers in Oncology, 2023)
